Source: US20050032695A1
Like-named read-outs stand apart in the source and are kept apart here.

How the values were obtained:
Assay in all cases: cell-based or functional assay
[1] = target: adenylyl cyclase (AC) in rat spinal cord lysates/membranes (rat)
[2] = target: adenylyl cyclase (AC) in rat dorsal root ganglia (DRG) lysates (rat)
[3] = target: adenylyl cyclase (AC) in rat spinal cord lysates/membranes (rat); remark: listed apart in the source

An inhibition of Gαs-stimulated AC activity, spinal cord lysates of control animals, 30 nM PAM [1] of 50%, an inhibition of Gαs-stimulated AC activity, DRG lysates, 30 nM PAM [2] of 32% and an inhibition of Gαs-stimulated AC activity, spinal cord lysates of animals treated for 1 hour with formalin, 30 nM PAM [3] of 25% were found for “PAM (Protein Associated with Myc), full length, purified from HeLa cells (from UniProt O75592 1-4678)” in this work. It also gave an inhibition of Gαs-stimulated AC activity, spinal cord lysates of control animals, 30 nM PAM [3] of 49%, an inhibition of Gαs-stimulated AC activity, spinal cord lysates of rats 96 hours after zymosan injection, 30 nM PAM [3] of 70% and an inhibition of Gαs-stimulated AC activity, spinal cord preparations of zymosan-treated animals [3] of 75%.
